In CN115125215A:

Experiments:
[1] = target: 原核表达并纯化的sIFN-λ4重组蛋白 (porcine IFN-λ4, E. coli, pET-15b-sIFN-λ4) (pig); experiment: indirect ELISA, antigen coated in 2-fold dilutions; positive if OD630nm of the well : OD630nm of the negative well ≥2.1
[2] = target: 原核表达并纯化的sIFN-λ4重组蛋白 (porcine IFN-λ4, E. coli, pET-15b-sIFN-λ4) (pig); experiment: indirect ELISA, purified ascites antibody diluted 100-fold and then in 2-fold steps to 100×2^12

最低检测限 (lowest detectable amount of coated antigen) [1]: 6.25 ng
效价 (ELISA titre) (fold dilution) [2]: 205000
B1: 单克隆抗体λ4-1A2 (sIFN-λ4单克隆抗体, secreted by hybridoma cell line λ4-1A2, CCTCC NO:C2022132) (antibody, V domains shown)
VH: QVTLKESGPGKLQPSQTLTLTCSFSGFSLNTYGIGVAWIRQPSGKGLEWLAHIWWNDNKYYNSALKTRLTISKDTSNNQVFLKIASVDTADTATYYCASIKGDYWGQGTS
VL: NIVLTQSPASLAVSLGQRATISCRASKSVDSFGKSFMHWYQQKPGQPPKLLIYLVSNLESGVPARFSGSGSRTDFTLTIDPVEADDAATYYCQQNNEDPPTFGGGTKLEIKR
